Experimental data reported in paper PMC5440653, “SorLA in Interleukin-6 Signaling and Turnover” (Molecular and Cellular Biology, 2017).
One block for each molecule: values may come before it.

How the values were obtained:
[1] = biological target: SorLA Vps10p domain (human); test: SPR; Biacore 3000, CM5 chip; purified soluble receptor immobilized (66 to 86 fmol/mm^2), ligand injected at 5 ul/min, 25°C, 10 mM HEPES, 150 mM NaCl, 1.5 mM CaCl2, 1 mM EGTA, 0.005% Tween 20, pH 7.4; Langmuir 1:1 model, global fitting
[2] = biological target: T1, preformed sSorLA:IL-6 complex (human, UniProt Q92673 82-2137; P05231 30-212); test: SPR; immobilized sSorLA first exposed to IL-6 (100 nM), then fresh buffer with 100 nM sIL-6R injected; n = 3; details: both partners purified
T1 construct: SorLA, human, luminal (extracellular) part, as m3; interleukin-6, human, recombinant, as m1; source: formed on the sensor chip: immobilized sSorLA exposed to IL-6 (100 nM)

[3] = biological target: T2, soluble SorLA (SorLA ectodomain, luminal part) (human, UniProt Q92673 82-2137); test: SPR; Biacore 3000, CM5 chip; purified soluble receptor immobilized (66 to 86 fmol/mm^2), ligand injected at 5 ul/min, 25°C, 10 mM HEPES, 150 mM NaCl, 1.5 mM CaCl2, 1 mM EGTA, 0.005% Tween 20, pH 7.4; Langmuir 1:1 model, global fitting; details: both partners purified
T2 construct: SorLA, human, luminal (extracellular) part; The introduction says that the propeptide is cut off in late Golgi compartments; also called sSorLA; the entire extracellular part of SorLA
T2 sequence (Q92673 82-2137): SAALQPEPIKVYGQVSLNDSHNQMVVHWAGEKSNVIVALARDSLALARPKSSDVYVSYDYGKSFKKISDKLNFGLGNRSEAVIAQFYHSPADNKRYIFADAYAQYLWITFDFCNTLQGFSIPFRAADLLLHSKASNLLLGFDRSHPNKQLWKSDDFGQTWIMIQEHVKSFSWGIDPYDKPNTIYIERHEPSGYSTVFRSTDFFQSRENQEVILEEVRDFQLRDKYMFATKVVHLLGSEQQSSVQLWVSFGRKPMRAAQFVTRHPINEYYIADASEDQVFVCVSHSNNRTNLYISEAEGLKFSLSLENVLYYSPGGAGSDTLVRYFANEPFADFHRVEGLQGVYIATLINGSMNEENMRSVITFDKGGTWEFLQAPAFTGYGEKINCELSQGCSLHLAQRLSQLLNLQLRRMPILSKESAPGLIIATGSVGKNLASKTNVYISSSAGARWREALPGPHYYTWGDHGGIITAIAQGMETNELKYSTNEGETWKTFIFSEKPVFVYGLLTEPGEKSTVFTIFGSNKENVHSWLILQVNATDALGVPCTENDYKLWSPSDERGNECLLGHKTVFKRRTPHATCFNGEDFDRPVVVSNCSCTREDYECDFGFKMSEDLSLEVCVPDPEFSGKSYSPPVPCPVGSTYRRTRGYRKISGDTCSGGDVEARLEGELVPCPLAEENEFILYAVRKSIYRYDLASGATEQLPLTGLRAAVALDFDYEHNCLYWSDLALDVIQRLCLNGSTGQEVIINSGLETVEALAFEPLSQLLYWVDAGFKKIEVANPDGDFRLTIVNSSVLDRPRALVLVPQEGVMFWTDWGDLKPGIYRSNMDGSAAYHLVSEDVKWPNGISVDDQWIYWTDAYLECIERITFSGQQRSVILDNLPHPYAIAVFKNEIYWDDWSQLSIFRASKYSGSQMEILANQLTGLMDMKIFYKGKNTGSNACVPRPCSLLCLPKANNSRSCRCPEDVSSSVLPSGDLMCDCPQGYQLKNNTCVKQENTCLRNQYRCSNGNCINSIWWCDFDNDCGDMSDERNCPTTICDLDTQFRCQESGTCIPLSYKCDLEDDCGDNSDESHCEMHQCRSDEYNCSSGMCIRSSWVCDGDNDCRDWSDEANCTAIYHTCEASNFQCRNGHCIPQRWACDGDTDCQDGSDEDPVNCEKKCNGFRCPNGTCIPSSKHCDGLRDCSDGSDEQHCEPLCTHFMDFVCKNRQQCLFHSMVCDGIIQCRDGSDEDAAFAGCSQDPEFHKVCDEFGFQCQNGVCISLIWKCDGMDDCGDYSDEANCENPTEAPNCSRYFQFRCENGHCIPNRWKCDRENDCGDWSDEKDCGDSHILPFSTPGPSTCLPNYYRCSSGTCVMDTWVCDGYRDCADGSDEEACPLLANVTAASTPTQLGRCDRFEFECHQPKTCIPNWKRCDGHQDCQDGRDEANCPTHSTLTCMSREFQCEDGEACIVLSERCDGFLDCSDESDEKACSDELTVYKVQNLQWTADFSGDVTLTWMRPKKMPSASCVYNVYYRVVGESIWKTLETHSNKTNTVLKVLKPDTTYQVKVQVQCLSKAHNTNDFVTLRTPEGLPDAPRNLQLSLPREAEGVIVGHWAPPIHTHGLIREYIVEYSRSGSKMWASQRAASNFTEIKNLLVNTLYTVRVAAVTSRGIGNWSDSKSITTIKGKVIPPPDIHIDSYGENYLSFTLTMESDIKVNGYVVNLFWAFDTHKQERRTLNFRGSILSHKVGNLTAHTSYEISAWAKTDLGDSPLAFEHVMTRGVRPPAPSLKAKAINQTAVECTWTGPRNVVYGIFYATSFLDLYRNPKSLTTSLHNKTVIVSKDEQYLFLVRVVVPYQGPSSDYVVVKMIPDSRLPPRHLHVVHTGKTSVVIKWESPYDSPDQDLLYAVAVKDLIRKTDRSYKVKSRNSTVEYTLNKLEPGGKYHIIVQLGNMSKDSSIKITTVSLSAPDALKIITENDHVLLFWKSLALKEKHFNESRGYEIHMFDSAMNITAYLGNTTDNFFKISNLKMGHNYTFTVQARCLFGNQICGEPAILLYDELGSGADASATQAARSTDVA

T1 sequence (Q92673 82-2137, chain 1 of 2): as the sequence (Q92673 82-2137) above
T1 sequence (P05231 30-212, chain 2 of 2): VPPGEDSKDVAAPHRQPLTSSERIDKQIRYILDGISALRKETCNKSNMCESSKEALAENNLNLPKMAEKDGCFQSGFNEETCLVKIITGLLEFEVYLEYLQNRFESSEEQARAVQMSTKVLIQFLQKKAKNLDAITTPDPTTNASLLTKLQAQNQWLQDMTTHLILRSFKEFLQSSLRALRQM

- Kd [1]: 12 nM
Molecule: Interleukin-6 (from UniProt P05231 30-212) (ligand)

- Kd [1]: 9 nM
Molecule: soluble IL-6 receptor (IL-6R ectodomain) (from UniProt P08887 20-365)

- Kd [2]: 8 nM
- Kd [3]: ~34 nM
B1: soluble IL-6 receptor (IL-6R ectodomain) (receptor, human, UniProt P08887 20-365, looked up)
chain: LAPRRCPAQEVARGVLTSLPGDSVTLTCPGVEPEDNATVHWVLRKPAAGSHPSRWAGMGRRLLLRSVQLHDSGNYSCYRAGRPAGTVHLLVDVPPEEPQLSCFRKSPLSNVVCEWGPRSTPSLTTKAVLLVRKFQNSPAEDFQEPCQYSQESQKFSCQLAVPEGDSSFYIVSMCVASSVGSKFSKTQTFQGCGILQPDPPANITVTAVARNPRWLSVTWQDPHSWNSSFYRLRFELRYRAERSKTFTTWMVKDLQHHCVIHDAWSGLRHVVQLRAQEEFGQGEWSEWSPEAMGTPWTESRSPPAENEVSTPMQALTTNKDDDNILFRDSANATSLPVQDSSSVPLP
notes: interleukin-6 receptor (alpha chain), human, soluble form consisting only of the ectodomain; also called sIL-6R; recombinant human sIL-6R; source: bought: R&D Systems
